Experimental data from article PMC11098746 (2024).
No end group written: not given here.

Key:
[1] = target: Circumsporozoite protein (CSP) (Plasmodium falciparum (isolate 3D7), UniProt Q7K740); test: AVEXIS screen signal:noise (double-corrected)
[2] = target: FGFR4 ectodomain (Homo sapiens, UniProt P22455); test: AVEXIS normalised luminescence

B1: ADP148 (protein)
chain: MASWIGAVILPLLGLLLSLPAGADVKARSCGEVRQAYGAKGFSLADIPYQEIAGEHLRICPQEYTCCTTEMEDKLSQQSKLEFENLVEETSHFVRTTFVSRHKKFDEFFRELLENAEKSLNDMFVRTYGMLYMQNSEVFQDLFTELKRYYTGGNVNLEEMLNDFWARLLERMFQLINPQYHFSEDYLECVSKYTDQLKPFGDVPRKLKIQVTRAFIAARTFVQGLTVGREVANRVSKVSPTPGCIRALMKMLYCPYCRGLPTVRPCNNYCLNVMKGCLANQADLDTEWNLFIDAMLLVAERLEGPFNIESVMDPIDVKISEAIMNMQENSMQVSAKVFQGCGQPKPAPALRSARSAPENFNTRFRPYNPEERPTTAAGTSLDRLVTDIKEKLKLSKKVWSALPYTICKDESVTAGTSNEEECWNGHSKARYLPEIMNDGLTNQINNPEVDVDITRPDTFIRQQIMALRVMTNKLKNAYNGNDVNFQDTSDESSGSGSGSGCMDDVCPTEFEFVTTEAPAVDPDRREVDSS
modifications: bait human Fc-tagged dimer
How did the binding score [1] turn out when B1 was run?
Its binding score is 0.913.

B2: ADP152 (protein)
chain: MAPSSPRPALPALLVLLGALFPGPGNAQTSVSPSKVILPRGGSVLVTCSTSCDQPKLLGIETPLPKKELLLPGNNRKVYELSNVQEDSQPMCYSNCPDGQSTAKTFLTVYWTPERVELAPLPSWQPVGKNLTLRCQVEGGAPRANLTVVLLRGEKELKREPAVGEPAEVTTTVLVRRDHHGANFSCRTELDLRPQGLELFENTSAPYQLQTFVLPATPPQLVSPRVLEVDTQGTVVCSLDGLFPVSEAQVHLALGDQRLNPTVTYGNDSFSAKASVSVTAEDEGTQRLTCAVILGNQSQETLQTVTIYSFPAPNVILTKPEVSEGTEVTVKCEAHPRAKVTLNGVPAQPLGPRAQLLLKATPEDNGRSFSCSATLEVAGQLIHKNQTRELRVLYGPRLDERDCPGNWTWPENSQQTPMCQAWGNPLPELKCLKDGTFPLPIGESVTVTRDLEGTYLCRARSTQGEVTRKVTVNVLSP
modifications: bait human Fc-tagged dimer
Which binding score [1] does the source give for B2 here?
The binding score was 1.23.

B3: ADP382 (protein)
chain: TYDDGICKSSDCIKSAARLIQNMDATTEPCTDFFKYACGGWLKRNVIPETSSRYGNFDILRDELEVVLKDVLQEPKTEDIVAVQKAKALYRSCINESAIDSRGGEPLLKLLPDIYGWPVATENWEQKYGASWTAEKAIAQLNSKYGKKVLINLFVGTDDKNSVNHVIHIDQPRLGLPSRDYYECTGIYKEACTAYVDFMISVARLIRQEERLPIDENQLALEMNKVMELEKEIANATAKPEDRNDPMLLYNKMTLAQIQNNFSLEINGKPFSWLNFTNEIMSTVNISITNEEDVVVYAPEYLTKLKPILTKYSARDLQNLMSWRFIMDLVSSLSRTYKESRNAFRKALYGTTSETATWRRCANYVNGNMENAVGRLYVEAAFAGESKHVVEDLIAQIREVFIQTLDDLTWMDAETKKRAEEKALAIKERIGYPDDIVSNDNKLNNEYLELNYKEDEYFENIIQNLKFSQSKQLKKLREKVDKDEWISGAAVVNAFYSSGRNQIVFPAGILQPPFFSAQQSNSLNYGGIGMVIGHEITHGFDDNGRNFNKDGDLVDWWTQQSASNFKEQSQCMVYQYGNFSWDLAGGQHLNGINTLGENIADNGGLGQAYRAYQNYIKKNGEEKLLPGLDLNHKQLFFLNFAQVWCGTYRPEYAVNSIKTDVHSPGNFRIIGTLQNSAEFSEAFHCRKNSYMNPEKKCRVW
modifications: bait human Fc-tagged dimer
B3 was tested. Which binding score [1] did it give?
The binding score was 0.577.

B4: ADP097 (protein)
chain: SPPRKREEAAAVPAAAPDDLALLKNLRSEEQKKKNRKKLSEKPKPNGRTVEVAEGEAVRTPQSVTAKQPPEIDKKNEKSKKNKKKSKSDAKAVQNSSRHDGKEVDEGAWETKISHREKRQQRKRDKVLTDSGSLDSTIPGIENTITVTTEQLTTASFPVGSKKNKGDSHLNVQVSNFKSGKGDSTLQVSSGLNENLTVNGGGWNEKSVKLSSQISAGEEKWNSVSPASAGKRKTEPSAWSQDTGDANTNGKDWGRSWSDRSIFSGIGSTAEPVSQSTTSDYQWDVSRNQPYIDDEWSGLNGLSSADPNSDWNAPAEEWGNWVDEERASLLKSQEPIPDDQKVSDDDKEKGEGALPTGKSKKKKKKKKKQGEDNSTAQDTEELEKEIREDLPVNTSKTRPKQEKAFSLKTISTSDPAEVLVKNSQPIKTLPPATSTEPSVILSKSDSDKSSSQVPPILQETDKSKSNTKQNSVPPSQTKSETSWESPKQIKKKKKARRET
modifications: bait human Fc-tagged dimer
How did the binding score [1] turn out when B4 was run?
The binding score was 1.17.

B5: ADP142 (protein)
chain: MGLGARGAWAALLLGTLQVLALLGAAHESAAMAASANIENSGLPHNSSANSTETLQHVPSDHTNETSNSTVKPPTSVASDSSNTTVTTMKPTAASNTTTPGMVSTNMTSTTLKSTPKTTSVSQNTSQISTSTMTVTHNSSVTSAASSVTITTTMHSEAKKGSKFDTGS
modifications: bait human Fc-tagged dimer
With B5 as the binder, how does the binding score [1] read?
Its binding score is 0.7.

B6: ADP378 (protein)
chain: PAPGRPPTHNAHNWRLGQAPANWYNDTYPLSPPQRTPAGIRYRIAVIADLDTESRAQEENTWFSYLKKGYLTLSDSGDKVAVEWDKDHGVLESHLAEKGRGMELSDLIVFNGKLYSVDDRTGVVYQIEGSKAVPWVILSDGDGTVEKGFKAEWLAVKDERLYVGGLGKEWTTTTGDVVNENPEWVKVVGYKGSVDHENWVSNYNALRAAAGIQPPGYLIHESACWSDTLQRWFFLPRRASQERYSEKDDERKGANLLLSASPDFGDIAVSHVGAVVPTHGFSSFKFIPNTDDQIIVALKSEEDSGRVASYIMAFTLDGRFLLPETKIGSVKYEGIEFI
modifications: bait human Fc-tagged dimer
B6 was tested. Which binding score [1] did it give?
Its binding score is 1.3.

B7: 42 (protein)
chain: QLRFASLGDWGKDTKGQILNAKYFKQFIKNERVTFIVSPGSNFIDGVKGLNDPAWKNLYEDVYSEEKGDMYMPFFTVLGTRDWTGNYNAQLLKGQGIYIEKNGETSIEKDADATNYPKWIMPNYWYHYFTHFTVSSGPSIVKTGHKDLAAAFIFIDTWVLSSNFPYKKIHEKAWNDLKSQLSVAKKIADFIIVVGDQPIYSSGYSRGSSYLAYYLLPLLKDAEVDLYISGHDNNMEVIEDNDMAHITCGSGSMSQGKSGMKNSKSLFFSSDIGFCVHELSNNGIVTKFVSSKKGEVIYTHKLNIKKKKTLDKVNALQHFAALPNVELTDVPSSGP
modifications: bait human Fc-tagged dimer
B7 was tested. Which binding score [2] did it give?
The binding score was 1.51.

B8: ADP313 (protein)
chain: MAHLHHSCLCFRSWLPAMLAVLLSLAPSASSDISASRPNILLLMADDLGIGDIGCYGNNTMRTPNIDRLAEDGVKLTQHISAASLCTPSRAAFLTGRYPVRSGMVSSIGYRVLQWTGASGGLPTNETTFAKILKEKGYATGLIGKWHLGLNCESASDHCHHPLHHGFDHFYGMPFSLMGDCARWELSEKRVNLEQKLNFLFQVLALVALTLVAGKLTHLIPVSWMPVIWSALSAVLLLASSYFVGALIVHADCFLMRNHTITEQPMCFQRTTPLILQEVASFLKRNKHGPFLLFVSFLHVHIPLITMENFLGKSLHGLYGDNVEEMDWMVGRILDTLDVEGLSNSTLIYFTSDHGGSLENQLGNTQYGGWNGIYKGGKGMGGWEGGIRVPGIFRWPGVLPAGRVIGEPTSLMDVFPTVVRLAGGEVPQDRVIDGQDLLPLLLGTAQHSDHEFLMHYCERFLHAARWHQRDRGTMWKVHFVTPVFQPEGAGACYGRKVCPCFGEKVVHHDPPLLFDLSRDPSETHILTPASEPVFYQVMERVQQAVWEHQRTLSPVPLQLDRLGNIWRPWLQPCCGPFPLCWCLREDDPQ
modifications: bait human Fc-tagged dimer
With B8 as the binder, how does the binding score [1] read?
The binding score was 0.959.

B9: 23 (protein)
chain: ENVDTFKCNYAKKKKNGHHIKRHITNDEEKKKEYSFLMLGKENEEENKENKENNQNVNKDNNDNNNNEKKNEEQNHNNEKKQEEVINNNNNNVENKKEEENHNNDKKTDEQNHVNEKKQEGENNKHKKDDTIPPEKKINKENLLEYGTHDKEGHFIPSYKTLTDEILSTNNAMEKASSFLKIACSHVMKLIEFIPESKLSSQYIKVDNKNIYLKDIAVECQNIYFNLEKFSMTLIVFNSKINKFIYSQEK
modifications: bait human Fc-tagged dimer
Which binding score [2] does the source give for B9 here?
The binding score was 0.913.

B10: ADP362 (protein)
chain: MARAALWLWLCALALSLQPALPQIVATNLPPEDQDGSGDDSDNFSGSGAGALQDITLSQQTPSTWKDTQLLTAIPTSPEPTGLEATAASTSTLPAGEGPKEGEAVVLPEVEPGLTAREQEATPRPRETTQLPTTHLASTTTATTAQEPATSHPHRDMQPGHHETSTPAGPSQADLHTPHTEDGGPSATERAAEDGASSQLPAAEGSGEQDFTFETSGENTAVVAVEPDRRNQSPVDQGATGASQGLLDRKEVLG
modifications: bait human Fc-tagged dimer
With B10 as the binder, how does the binding score [1] read?
Its binding score is 0.594.

B11: 58 (protein)
chain: IQLHSVNYAPLNYIEIGDTLSNKVGELWHSHLNSFIDIVSTKVVNKLEDDLSNGNNLEKFMILLEDDADIFDASAYEGKNLALIQTEFIRKLKDKFKNSKFGQKLKKLGSKAKEKLLSLYQKHKGKLRHFFSILLKSLVIPIAVQFIRKNLNKWKQRTLEATQKLDEQSKNIAQPIINRLYNSFEDKIEEYSQENKINVEDELNALGQLDKDKQDIQKLEEQEKALLQ
modifications: bait human Fc-tagged dimer
Which binding score [2] does the source give for B11 here?
The binding score was 0.979.

B12: ADP287 (protein)
chain: MANPGLGLLLALGLPFLLARWGRAWGQIQTTSANENSTVLPSSTSSSSDGNLRPEAITA
modifications: also: human Fc-tagged dimer
B12 was tested. Which binding score [1] did it give?
The binding score was 1.47.

B13: ADP309 (protein)
chain: MEAPAAGLFLLLLLGTWAPAPGSASSEAPPLINEDVKRTVDLSSHLAKVTAEVVLAHLGGGSTSRATSFLLALEPELEARLAHLGVQVKGEDEEENNLEVRETKIKGKSGRFFTVKLPVALDPGAKISVIVETVYTHVLHPYPTQITQSEKQFVVFEGNHYFYSPYPTKTQTMRVKLASRNVESYTKLGNPTRSEDLLDYGPFRDVPAYSQDTFKVHYENNSPFLTITSMTRVIEVSHWGNIAVEENVDLKHTGAVLKGPFSRYDYQRQPDSGISSIRSFKTILPAAAQDVYYRDEIGNVSTSHLLILDDSVEMEIRPRFPLFGGWKTHYIVGYNLPSYEYLYNLGDQYALKMRFVDHVFDEQVIDSLTVKIILPEGAKNIEIDSPYEISRAPDELHYTYLDTFGRPVIVAYKKNLVEQHIQDIVVHYTFNKVLMLQE
modifications: bait human Fc-tagged dimer
With B13 as the binder, how does the binding score [1] read?
Its binding score is 1.06.

B14: ADP285 (protein)
chain: LTQGYNNWTNGLYGYSWDMMVHSRSHQHVKITYRDGRTGELGYLNPGVFTQSRRWKDHADMLKQYATCLSRLLPKYNVTEPQIYFDIWVSINDRFQQRIFDPRVDIVQAAWSPFQRTSWVQPLLMDLSPWRAKLQEIKSSLDNHTEVVFIADFPGLHLENFVSEDLGNTSIQLLQGEVTVELVAEQKNQTLREGEKMQLPAGEYHKVYTTSPSPSCYMYVYVNTTELALEQDLAYLQELKEKVENGSETGPLPPELQPLLEGEVKGGPEPTPLVQTFLRRQQRLQEIERRRNTPFHERFFRFLLRKLYVFRRSFLMTCISLRNLILGRPSLEQLAQEVTYANLRPFEAVGELNPSNTDSSHSNPPESNPDPVHSEF
modifications: bait human Fc-tagged dimer
With B14 as the binder, how does the binding score [1] read?
The binding score was 0.774.
